According to patent US6492106B1, “Mammalian proteins that bind to FKBP12 in a rapamycin-dependent fashion” (The Johns Hopkins University, priority 1994, dated 2002):
“Also recorded” adds a separate entry of the source. Each block holds one molecule with its values, some of them ahead of it.

Tests used:
[1] = molecular target: FKBP12 / RAFT1 (245 kDa) and RAFT2 (35 kDa) (Rattus norvegicus, UniProt P42346+Q62658); assay: Crosslinking assay: 32P-FKBP12 with heparin column eluate of rat brain cytosol
[2] = molecular target: RAFT1 (Rapamycin And FKBP12 Target 1), 245 kDa protein (rat) (UniProt P42346); assay: DSS crosslinking in heparin column eluate with 1 uM rapamycin plus 1 uM FK506 (small-molecule competitor)
[3] = molecular target: RAFT2 (Rapamycin And FKBP12 Target 2), 35 kDa protein; assay: as above

reduction of the intensities of the crosslinked bands ([1]; equal concentrations (1 μM) of rapamycin and FK506): approximately 50%
Molecule: C=CC[C@@H]1/C=C(\C)C[C@H](C)C[C@H](OC)[C@H]2O[C@@](O)(C(=O)C(=O)N3CCCC[C@H]3C(=O)O[C@H](/C(C)=C/[C@@H]3CC[C@@H](O)[C@H](OC)C3)[C@H](C)[C@@H](O)CC1=O)[C@H](C)C[C@@H]2OC [FK506, reference compound]

reduction of crosslinked band intensity [2]: 50% | reduction of crosslinked band intensity [3]: 50%
Molecule: 32P-radiolabeled FKBP12 probe (recombinant rat FKBP12 with two consensus PKA sites added at the N-terminus, cleaved from GST with thrombin) (from UniProt Q62658 1-108)

B1: unlabeled FKBP12: immunophilin receptor protein for FK506 and rapamycin, used unlabeled in excess (1 μM) as competitor (protein)
chain: GVQVETISSGDGRTFPKRGQTCVVHYTGMLEDGKKFDSSRDRNKPFKFTLGKQEVIRGWEEGVAQMSVGQRAKLIISPDYAYGATGHPGIIPPHATLVFDVELLKLE
antagonism of rapamycin-induced crosslinking of 32P-FKBP12 to the target proteins ([1]; competitor at 1 μM, all rapamycin concentrations tested): prevent the rapamycin-dependent association; also recorded: completely suppressed the appearance of the crosslinked bands
